Source: the DeepSol protein solubility set

Assay: soluble on expression in E. coli; label from the status in PepcDB or PDB records

Sequence	soluble on expression in E. coli
MGSDKIHHHHHHMAELIFSRETDCRYCYKCLRNCPVKAISFKSGKSTVLEEECVFCGSCLDICPQNARSYRKDVERFLSLSEPFLVSIAPSFFAYFENPLKVIGVLKEMGAVVVQETAVGAEIVSRRYEEVFEKHSGPFITTACPVVVNLAEKHFPNVLKYFAPVDSPLMTHAKFLKTRYGDFPIVFVGPCIAKKSESDLVDVALTFEELEEILEEREGKEALPDGPYPDRARFYPTTDGIGYTVSVPWEKKLVVEGVENLMRVFSRIDEYKSVFIEASACYGSCLNGPVMKKKSNGKERLLEWQKKLPKEPK	not soluble
MGSDKIHHHHHHMPFQQGLLATPVPAHARHLFFTLQSPEALPAALDALLPQVDGKQLLLGVGAPLAKALGREIPGLRPFPLLDAAVENPSTQHALWLWLRGDERGDLLLRTQALEQALAPALSLADSVDGFLHRGGHDLTGYEDGTENPTDEEAVQAAIAADGSSFAAFQLWKHDLQYFKSLPQADQDNIIGRRLSDNEELDDAPASAHVKRTAQESFEPEAFMVRRSVSWADQRGAGLAFVALGKSFEAFEVQLRRMSGLEDGIIDGLYRFSRPLTGGYYWCPPMSETGVDLSPLLRA	not soluble
MGSDKIHHHHHHYGAQAYGMGGGGGGYNRPMNSYGNGYNNGGGFNNYGNGGGFGGNNYNNGPPPFDGGYNRPYGGGGGGGYGRPQGYVPPPPPPPTQPEPEPEPRPEPQPEPQPEPQPEPQPEPQPEPHPEPAPEPIVKPYNSYAQPHNSYVRYGGK	not soluble
MAAMFSNTRSVASSSGHIVEFKAGRSRLEAGSGDTMRKVVAEPKKGLVFIKQSNDMLIHFCWKDRETGAVVDDLIIFPDDAEFKAVPGCPDGKVYMLKFKSGDMKLFWIQDSTPDVDKDLVKKVTDALNKPPTSRPAASRSAGSNANTDRQSAGGSLISSSDMNAPLGGIDQGQLMSLIQSLQGGNSDTLPISSVPRGEDASSEADCEPSTNAAEEGSSNPLSLNNPAIQQIFNNLGRSQKKEVAVSLATALSNETVAEVARNHAEELAPHLPTSDDPARELSETVRTPQFRQAADTLGHALQTGQLGPVVAQFGMDEATVGSANQGDIRGFAANLTKAEGGEDAAKTQNSDDDATREPEPKRNRPDNEDMDVD	not soluble
MRKRLITVKNLFEYVQENELVIQADMIITPGAKDIIRDKGIGVKYEKCCCESESKMKNEIKKDCQNFEKKVIDIITKEFKITDSETVQKILSKLKELL	not soluble
MIKKYTCKNGVRIVMENIPTVRSVAIGIWIHAGSRNENEKNNGISHFLEHMFFKGTETRSAREIAESFDSIGGQVNAFTSKEYTCYYAKVLDEHAKYALDVLADMFFNSTFDEEELKKEKNVVCEEIKMYEDAPDDIVHDMLTKATYETHPLGYPILGTEETLNTFTGDTLRQYIKDHYTPENVVVSIAGNIDEAFLQTVEQYFGSYEGTTNREQVHSPIFHFNKVARKKETEQAHLCLGYKGLQMGHEDIYNLIVLNNVLGGSMSSRLFQEVREQRGLAYSVFSYHSSYEDTGMLTLYGGTGSQQLDTLYETMQETLETLKNTGITEKELINSKEQLKGNLMLSLESTNSRMSRNGKNELLLRKHRSLDEIIESVNTVTKENVDELIRNMFTDEFSAALISPDGKLPKGIKL	not soluble
MGSDKIHHHHHHMEFTDLQIFIHLSDTKNFTKTATQNHMSPSTLSRQIQRLEDELGKTLFIRDNRQVKLTEYGEKFLQFAKTEWQNWQQFKQQLKDESDELCGEIKLFCSVTASYSHLPHVLKEFRQRYPKVEIQLTTGDPALALELIQAQQVDLALAGKPNNLPSSVVFHKIDDISLSLIAPRVACLATQLLQEKPIDWQQMPFIFPVEGHARQRIEQWLREKQIKHPKIYATVAGHEGIVPMVGLGFGLAMLPDAVIDSSPMNNQISRLNLDKPIEPFELGICTQKRNLEQPLVRAFWAMLE	not soluble
SLTVFQPLVPPDWKMNLREGSLYAQVAFSAAAGQGFEAGGHGVLKGGSAWMPDNQINGVDFVLPFRFSDGHWQLGIRRPVSLRIGEIVNQVTARNLTADLQGTWPWSEANPLQLSDVSVDLLGGKLTLLQLRMPQRDPALIRLQHISSSELTSAVKVKQFAMSGAVSGALPLWLENNQWIIHDGWLRNDGPMTLRLDKDTADALVADNVSAGAAINWLRYMEISRSWTQINLDNLGVLTLKASINGTSRVEGKSSTVHLNYAHEENIFDLWRSLRFGDNLQAWLEQNATL	not soluble
NEPVAVIGVGCRFPGDIDGPERLWDFLTEKKCAITAYPDRGFTNAGTFAESGGFLKDVAGFDNRFFDIPPDEALRMDPQQRLLLEVSWEALEHAGIIPESLRLSRTGVFVGVSSTDYVRLVSASAQQKSTIWDNTGGSSSIIANRISYFLDIQGPSIVIDTACSSSLVAVHLACRSLSTWDCDIALVGGTNVLISPEPWGGFREAGILSQTGCCHAFDKSADGMVRGEGCGVIVLQRLSDARLEGRRILAILTGSAVNQDGKSNGIMAPNPSAQIGVLENACKSARVDPLEIGYVEAHGTGTSLGDRIEAHALGMVFGRKRPGSGPLMIGSIKPNIGHLEGAAGIAGLIKAVLMVERGSLLPSGGFTEPNPAIPFTELGLRVVDELQEWPVVAGRPRRAGVSSFGFGGTNAHVIVEEA	soluble
MTALSQLYPQPLWQWFEQICAIPHPSKHEQSLSQHIQAWAKQKQLDVVEDAVGNVIIRKAATPGMEDRKVVVIQAHIDMVPQKNADKVHDFIKDPIEAYVDGDWVKAKGTTLGADNGIGMASALAILGSDDIKHGPLEVLLTIDEEAGMTGAFGLQAGMLNAEILINTDSEQEGEIYMGCAGGVDAQITLPMVWQASEQSYASFSLHLSGLKGGHSGVNIHLGRGNANKILARFLFENADELALELTQFTGGSLRNAIPREANISFMLPAENIDALKEKVHAFEALMRAELAIADPDLRLVLSNIATPKRVMSENSQNTLIDLLHVCPNGVMRMSDEVTGVTETSLNVGVISTNDEEVGILCLIRSLIDSGRSQVEGMLNALTNLAGADVEFSGAYPGWKPDNTSPVMAIVRETYESIYHKEPVIMVIHAGLECGLFKKPYPEMDMVSIGPTIRYPHGPDEMVNITTVGQYWDLLVAVLERIPVKALEHHHHHH	not soluble
MGSDKIHHHHHHMDSWNMKGSKMVDVNEITKYLPGFNCGACGYKRCDLFAEALLNKDVKLEDCPFLLRERFKENYEKLKEILKIKGKIKKEEKYIGVIDGYEADFLLKPLPNECSCRETLLIMDKKELKVGDYIRYRPLGCPIPHFAKIIDEYHGFYIIHVVGPSHRITGEKIEYKDVGIAIVVAFEGIVEGKVPEVGKTVKFIPKHCMMQKVHSGVVVQVEGKRVYIEGIDLKVF	not soluble
METKPSQGLYPLHRCKTIHLVRHAQGIHNVEGEKNHKAYLSEDLFDAHLTPLGWQQVDNLHKHVNASGISNRIELVVVSPLLRTLQTAVGTFGGEGYKDGVNTPLLMTAGAGNSDRPAISRLNRPPFIAVESCREHLGVHPCDRRSNITKYRELFPAIDFSLIETDEDVLWKPDIREEDKDIATRGVKFFNWLSTRKEKEIAVVTHSGFLYQTLNSFGNDCDPSVKNEISKKFVNCELRSFVLVDKCMSSSDPPMTNYPGTILTGEDASSDIADQK	soluble
MSLLIETTMTFLCPLCEHPLTLNQNTYACINRHQFDVAKEGYVNLMPVQHKRSKDPGDNKEMTQARRRFLHTGHYAPMREKVATLCQTYLTDRQQTLLDIGCGEGYYTDFFAKALRQQDSEAQIFGLDISKIAIRYAAKRYPECQFAVASSHRLPFANQSLDGVIRIYAPCKDTELERCIKIGGIVITVTPAARHLYQFKQGIYDQVRLHEEQPETLSGFELVEECKLHYPMALNGSEAADLLQMTPFAWRASEDFKHRVSQSDTFECEADFMLRVYRRKEGHHHHHH	soluble
IGADVDLATLSGLDGAALHFEQTIFILDNGTGQPTGGEWQGAVGSYFGGAPLHNDIASNQLSLLTYKQKWLDGQLDLHVGRTNGRRYFYIYNCETGVTCNDPILDASSGMLPPPFGAWGGYLKYQVNPRFYVHAGAFESNPVDYLKKRKGLDFSTDDASGTSFLVGIGSKPGDNTTQYELNA	not soluble
